Reference: PMC6191146, “Positive and negative regulation of transferred nif genes mediated by indigenous GlnR in Gram-positive Paenibacillus polymyxa”

Assays:
[1] = molecular target: His6-tagged GlnR of Paenibacillus polymyxa WLY78 (Paenibacillus polymyxa WLY78); assay: SEC; Superdex 200 10/300, 50 mM Tris-HCl pH 7.4, 300 mM NaCl; His6-GlnR at 2 mg/ml; dimer to monomers, broad peak with two maxima
[2] = molecular target: T1, GlnR (Paenibacillus polymyxa WLY78, UniProt A0A074LG55 1-137); assay: SPR; GlnR alone; fast dissociation; EMSA: 20 mM HEPES pH 7.6, 1 mM EDTA, 10 mM (NH4)2SO4, 1 mM DTT, 0.2% Tween 20, 30 mM KCl, 1 ug poly[d(A-T)], 0.3 nM probe, 25 C; SPR: 10 mM HEPES pH 7.4, 300 mM NaCl, 3 mM MgCl2, 0.2 mM EDTA, 0.005% Tween-20, 25 C; conditions: protein: recombinant; tags: N-terminal His6 (pET-28b); chain copies: 2; label: 5' biotin on capture linker S7; 39 bp duplex; 3' overhang 20 nt of BS1R paired to the capture linker
T1 sequence: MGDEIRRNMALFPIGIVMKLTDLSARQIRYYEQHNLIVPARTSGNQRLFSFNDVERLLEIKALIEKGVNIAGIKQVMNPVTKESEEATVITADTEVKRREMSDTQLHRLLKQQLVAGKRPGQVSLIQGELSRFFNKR

[3] = molecular target: T1, GlnR; assay: SPR; GlnR alone; EMSA: 20 mM HEPES pH 7.6, 1 mM EDTA, 10 mM (NH4)2SO4, 1 mM DTT, 0.2% Tween 20, 30 mM KCl, 1 ug poly[d(A-T)], 0.3 nM probe, 25 C; SPR: 10 mM HEPES pH 7.4, 300 mM NaCl, 3 mM MgCl2, 0.2 mM EDTA, 0.005% Tween-20, 25 C; conditions: protein: recombinant, tags: N-terminal His6 (pET-28b), chain copies: 2, label: 5' biotin on capture linker S7, 39 bp duplex
[4] = molecular target: T1, GlnR; assay: SPR; GlnR alone; slow dissociation; EMSA: 20 mM HEPES pH 7.6, 1 mM EDTA, 10 mM (NH4)2SO4, 1 mM DTT, 0.2% Tween 20, 30 mM KCl, 1 ug poly[d(A-T)], 0.3 nM probe, 25 C; SPR: 10 mM HEPES pH 7.4, 300 mM NaCl, 3 mM MgCl2, 0.2 mM EDTA, 0.005% Tween-20, 25 C; conditions: protein: recombinant; tags: N-terminal His6 (pET-28b); chain copies: 2; label: 5' biotin on capture linker S7; 39 bp duplex; 3' overhang 20 nt of BS2R paired to the capture linker
[5] = molecular target: T1, GlnR; assay: EMSA; GlnR alone; EMSA: 20 mM HEPES pH 7.6, 1 mM EDTA, 10 mM (NH4)2SO4, 1 mM DTT, 0.2% Tween 20, 30 mM KCl, 1 ug poly[d(A-T)], 0.3 nM probe, 25 C; SPR: 10 mM HEPES pH 7.4, 300 mM NaCl, 3 mM MgCl2, 0.2 mM EDTA, 0.005% Tween-20, 25 C; conditions: protein: recombinant; tags: N-terminal His6 (pET-28b); chain copies: 2; label: DIG 3' end; blunt

## His6-tagged GlnR of Paenibacillus polymyxa WLY78 (natural protein)
[1]
  stoichiometry N: 2

B1: SPR oligo site I (BS1F/BS1R on capture linker) (dsDNA)
DNA 1: GTAAAGTGTACGATATATTACTTGACGTAAAATTTGACA
DNA 2: TGTCAAATTTTACGTCAAGTAATATATCGTACACTTTACCCTACCCTACGTCCTCCTGC
DNA 3: GCAGGAGGACGTAGGGTAGG
[2]
  Kd: 9.16e-07 M (unit not printed in text)
[3]; 3' overhang 20 nt of BS1R paired to the capture linker
  Ka: 1.09e+06 M-1 (unit not printed in text)

B2: SPR oligo site II (BS2F/BS2R on capture linker) (dsDNA)
DNA 1: AACAGAGATTTATGTAAGGGAATATAACGTAGAGAGGAG
DNA 2: CTCCTCTCTACGTTATATTCCCTTACATAAATCTCTGTTCCTACCCTACGTCCTCCTGC
DNA 3: GCAGGAGGACGTAGGGTAGG
[4]
  Kd: 5.37e-08 M (unit not printed in text)
[3]; 3' overhang 20 nt of BS2R paired to the capture linker
  Ka: 1.86e+07 M-1 (unit not printed in text)

B3: EMSA probe mutated site I (TGACGT to GGTACC) (dsDNA)
DNA 1: ACCGCGCACATGTAAAGTGTACGATATATTACTGGTACCAAAATTTGACACATATGTGA
DNA 2: TCACATATGTGTCAAATTTTGGTACCAGTAATATATCGTACACTTTACATGTGCGCGGT
[5]
  binding result: no binding

B4: EMSA probe mutated site II (ATAACG to ATCGAT) (dsDNA)
DNA 1: AGACAAAAACAGAGATTTATGTAAGGGAATAATCGATAGAGAGGAGGGAATGA
DNA 2: TCATTCCCTCCTCTCTATCGATTATTCCCTTACATAAATCTCTGTTTTTGTCT
[5]
  binding result: no binding
